The results in this text go back to the DeepSol protein solubility set.

This data set is described as follows: soluble on expression in E. coli; label from the status in PepcDB or PDB records.
Turning to “MGSDKIHHHHHHMVRPRIKLTEHLSTEEIEQSYRRCEDAQEKTRWLVIKLLNQQPQLSAQKVAEIVGFSGDWVRKIVRRYNKLGANGIINQQKLKPGGKKLALTNEQQQWLRQRLASPPEDGGLWSAPKVGELIRVQFGITLHVTTAWDYLKRLGFSLQQPRPLHTEAATFVQRQMFKTELTEFVRLLRFLHPHKSVEVWAEDEARLGLKPIVRRVWTPVGHRPNAVHRTRYQWLYTYGFVHPATGESFFLILPRVNIAVMQMALDAFAAEVNPHHHKIIVLLVDQAGWHTSKQLMLPAGIILFPLPAYTPQLQPTECVWSLLREAVANQMFSTLDELETVLISRCQWLMSHPQIVHGKVGFDWICQI”, the “soluble on expression in E. coli” value is listed as “not soluble”.

“MDNLETDRLILINYTLEMIQATINGTEALEKTSGYHVSPDWPGIDFFFYLPYVLENVKKDDKMIKWTRLVVLKTENKIIGEIGGQGNPDETGEIEIGYSIVPDYQNKGYMSEALISMIDWLEHQPVINRIFARCYEQNEASIQVLKHNHFVHIKEKDTEEKQGRVMMWEYPIKQT”: the “soluble on expression in E. coli” value is on record as “not soluble”. For the sequence “AGVNDDMPLKECYRTMWLNIWNLAGSNLNAISNRVQYDSLPCTTRNKTWELERKMFAQVDRLFNQGKEEGVFKPLDNEVLSGLSFEASVALARKHALGFYQLDDDALEAAIEASWDAIIKH”, the “soluble on expression in E. coli” value is given as “not soluble”. As for “RTFRHYDAYRSQSGTTGTDAARFILSQSGINDVGVQKISGDLTDNYNGQTKILSLSEATADSTSVAAIGVAAHECGHAVQDHVNYWPMRLRTALVP”, the “soluble on expression in E. coli” value is listed as “not soluble”. For the sequence “MGHHHHHHSHMEEERRDDYKFLRIQDAFKALHLHVNLIGVIVELGFSNGSDCSCTLKIVDPWYSGSGLPVKFVARTIRDLPRVESIGDIILLSRVKIVLINRKITALCNETTSSSFALFNGKHSVDSIPYQSSPKFLMREQDKNFLSNLREWMITYKFEDGS”, the “soluble on expression in E. coli” value is recorded as “not soluble”. In the case of “MGSDKIHHHHHHMIEHFNPWWKGREGIEEDEDYRKWIGSEVRWVPEVIKKISLEPFSLNIIFGPRQVGKTTLLKLIVKKLLDEGKNPRSIFYLRCDYISDYKELMNVIDEYLEIKETEGIKSSYILLDEVTFPKEWFRAIKLYIDMGKFRNDVLILTGSTSMYTKGEVETFPGRRGKGKDAVMLPLTFREFIKIASPKLHSVLPRINSLNKVEECLKAIPFIEELNSLFKLYLISGGFPRAVKDLLKHNKVSEETYETYISWMRGDILKLGKSEEVARRIMKTIIKKLPSPVSWHGIAKEIDIGSHKTVFSYIELFERMFLIRVLPYIDPDKLEADFKREKKVHLIDPFLYHLVSRWTLTEEPSEDKIVESVVATHVARRYEVGYWRDGREIDVVTREGVGIEVKWSDNVKVSPVKVGKIRKVITLSKSKFSRDPLVIPVSVFLSCI” it was “not soluble”; in that of “MSLSFYERYLEYKNFDFENFFDQVTDRDIINIINKDRRLSELEFLMLLSKKAVKYLEPLAQKANRITVQNFGKVIFLYTPMYLANYCVNQCIYCGFNITNNIKRRKLTLDEVEKEAYAISSTGLRHILILTGESRKESPVQYIKDCVKILQKYFRSISIEVYPLEENEYAELIEAGVDGLTIYQEVYDEEKYKALHLKGPKRNYLYRLDAPERACKASMRNVNIGALLGLHDWRTEAFYTGLHADYLQNKYPDVEIGLSLPRIRPHPCGSFVPDCKVEDRDLVQIMIAYRLFMPRAGIAISTRERESLRNNLIGLGVTKMSAASSTEVGGHTLGDKSDGQFDVNDRRGVEEMRQMIYSKGYQPVFKDWQAEGHHHHHH”, “soluble”. As to “MSKKSQIIETATRLFAEHGFENTPVSLICEEAEVSKGAVFHHFKNKNDILREVFIHITTIIEETDKNDVHLATQEDPLEAAIHEIFDGMSVAKYRKMYQFNFSVMVHPTTRAIVADLIEDRYQQLQTSAEEIFRAVGYSNPVVITKMFIAEIDGIAMNYLLNNDFPLMDIKQEFIKKYCQ”, the “soluble on expression in E. coli” value is “not soluble”.

Take “MGSDKIHHHHHHMKDEVLIYSWVGEENIGDELILKSIVRMIEKIDDRLKVNVMGTKPKVINKIHNHLGLNRISTYINWTLKSILRAILKHNIFKAILNILCSNKLIIASGGALSDWNPSSTKTIFFLIDLFYFMNRPICMMGVGAGPILHEKSKKRFYNKLKKLEVITVRDEESYELLKSIGLKNVILTSDSVFNICSIIQNKYPEKDVTEKKISFVLAKLFKDNTKELKEYKEEIIKTINRLKKENWKIKLVPFHYSEDIGFLKSINQKCNVEILNSHDMYDTIGELNNENIIVGMRYHSVIMSLVLGKKVIPLIYHPKVYSVARRFEILDIAENVGNGGNWIGSNISSERLLKNIEKLYKSDENTAKNRGKVLRIVKQNDLNNEILARFLRHSNVLEVVSYNVQRH”: the “soluble on expression in E. coli” value is reported as “not soluble”. Take “EVKLVESGGGLVLPGGSLRLSCATSGFTFTDYYMTWVRQPPGKALEWLGFIGNKANDYTTEYSASVKGRFTISRDDSQSILYLQMSTLRAEDRATYYCATVYGNYPYFDVWGVGTTVAVSSATTTAPSVYPLVPGCSDTSGSSVTLGCLVKGYFPEPVTVKWNYGALSSGVRTVSSVLQSGFYSLSSLVTVPSSTWPSQTVICNVAHPASKVDLIKEISGP”: the “soluble on expression in E. coli” value is “soluble”.

Consider “MGSDKIHHHHHHMPIKSRAVVIPKRNTIEIRTVQVNEPKAGDVLIKTAFTSISAGTERMLLDGRLPQPQLLFPVVPGYETVGQVVQVGSKAPKELLGQWVYIGGARCFRGVNAAWGGQSEYITAEHERVVPLGSLDPATGVLLALAATALHGIKIGQIRRSDRVLVLGQGIVGQLAARLAKYAGAQHVAVADRVAVRLQASQADQVIDVTRESLDEAIGEAKVDVLIEATGSMGALSGALPLLANHGRVVLLGYYDHINIPYAPVFMREAQILVAREWEFGPDGDLPRVRDLLANGDLKVDGLLTHHVPLDRIQAAYRLAPGRPGLFEGCCHVAAKRYRRSVVLTRQGAMRISLEREMALCPPIQKRNNQVQQHECSPSTAKAAWENHSSPPIW”, for which the “soluble on expression in E. coli” value was “not soluble”. Take “TMEPERLFNLIVKTTVDTLRAQIGYIILYSPREKNLQVTTLLGHTIPEGSTTTLPMKQSSVSTWVIENRRPLLITTMDEWPQFDRYSSLGYERRTLICAPLQIKDEIIGTITVVNKDDNSTYTIQELELLSTIAAQASIAIKNAQLYDEQQATYLHTIQALVSAIEAS”: the “soluble on expression in E. coli” value is given as “not soluble”. Take “MPDSMSEQLRRDMQCEGLLECFHGLKELDKECFRALVEAEEPLTVDELADAVDRERSTAYRAVQRLLQTGFIEKDQINYDQGGYYHVYSPTDPSQIADEMQRMLNDWYAKMGQLIQEFENKYEQSESTAPTVES”: the “soluble on expression in E. coli” value is “soluble”. As for “DEPKVLIAEVVVEGATPELEQLVYQVISTRPGSTTTRTQLQQDTNAIFATGFFADVNAVPRDTPLGVRITFVVRPYPVLRAVQVAGNQVLTQEKVNEIFAPQIGRTLNLRELQAGIEKINTFYRDNGYILGQVVGTPQVDPDGVVTLQVAEGVVEQVTYRFLNKEGEPTKQRTRDFVISREMDTQPGVVLNQKTVQADLRRLFELGLFEDVQVALEPGQNPRRVNLILNIKERNT”, the “soluble on expression in E. coli” value was “soluble”.

Regarding “MKGVHHRPHEAVPTWACGWGVATTEHMAVSRRKHFSSICLHAQGSSRLPVLSTGTAVSELLRTSLCQVVELGPSPYLSLVPTVLLTVQHLGALAWGWRPW”, the “soluble on expression in E. coli” value is “soluble”. As for “LQELSITNFAIIEHLDIAFEAGMTVLTGETGAGKSIIIDAVGLLAGGRGSAEFIRTGADKAVLQGMFILPADGVTAQLLDEAGIEHADNTVILQREITKSGRNTCRINGMLVNTTTLKQIGETIVDIHGQNEHQELMQPEKHLGLLDEFATA”, the “soluble on expression in E. coli” value is reported as “not soluble”. Turning to “MSLSRSEEMHRLTENVYKTIMEQFNPSLRNFIAMGKNYEKALAGVTYAAKGYFDALVKMGELASESQGSKELGDVLFQMAEVHRQIQNQLEEMLKSFHNELLTQLEQKVELDSRYLSAALKKYQTEQRSKGDALDKCQAELKKLRKKSQGSKNPQKYSDKELQYIDAISNKQGELENYVSDGYKTALTEERRRFCFLVEKQCAVAKNSAAYHSKGKELLAQKLPLWQQACADPSKIPERAVQLMQQVASN”, the “soluble on expression in E. coli” value was “soluble”. With “HDVIFHIRAKGKNQKLLLSAHPSYSRVHITAQAYENPSEPPMFCMLLRKHIEGGFIEKIEQAGLDRIMIFHIKSRNEIGDETVRKLYVEIMGRHSNIILTDAAENVIIDGLKHLSPSMNSYRTVLPGQDYKLPPAQDKISPLEASEDDILRHLSFQEGRLDKQIVDHFSGVSPLFAKEAVHRAGLANKVTLPKALLALFAEVKEHRFIPNITTVNGKEYFYLLELTHLKGEARRFDSLSELLDRFYFGKAERDRVKQQAQDLERFVVNERKKNANKIKKLEKTLEYSENAKEFQLYGELLTANLYMLKKGD”, the “soluble on expression in E. coli” value was “not soluble”. As to “MGSDKIHHHHHHMPLLDIRNLTIELDTPHGRVKALERVSLTLNPGEVHGLVGESGSGRTLLAKAILGIPGHNWTIQADRMMWDGQNLMDMSPSERRVLMGSEMAMIFQDPISSLDPAIAVGTQIIEAMPENKELPWWKRGSDKRKKAQQWLHKVGIKETQKIMSSYAWELSDGECQKVMIAIAVANQPRLLIADEPTNSMEVRTQAQIFRLLSKLNQLQNVSILLISHELETLSQWCDRLTVMYSGQVMESGVTSDVIANPYHPYTKALLDNIPDYSNPEHHKTMMQTLPGSAPALQHLPIGCRLGPRCPQAQKLCVNQPSLCHQKDRYFACHFPYHNEPCHEEPLTKS”, the “soluble on expression in E. coli” value was “not soluble”. Regarding “MRHSFFCIDSHTCGNPVRLVAGGGPLLPHLPISERRDLFVRNHDWVRQALMFEPRGHDIMSGAVIYPAYRDDCDFAVIFIEVSGCLPMCGAGTIGLVTAAIEEGLVTPRIPGRLSIETPAGKVDIQYDKPGEFVESVRIFNVASYLHAADVEVNVPGLGKLVVDIAYGGNYYAVIEPQVGWPGLDGMTAGDVVDLSQKLRDALGTICDPVHPDDERIRGVHHAIWCDRPVSAEADGRGAVFYGDKAIDRSPGGTGTSARMAQLHGKGRLKAGETFRQESLIGTIFEGKVEEETTVGSFSGIRPSIGGWARIIGHNTIFVDDRDPLAHGFQVRLEHHHHHH”, the “soluble on expression in E. coli” value was “not soluble”.

For “MHHHHHHSSGVDLGTENLYFQSNAMSHSIEQLSINTIRTLSIDAIEKANSGHPGMPMGAAPMAYTLWTQFMKHNPNNPTWFNRDRFVLSAGHGSMLLYSLLHLSGYDVTMDDLKNFRQWGSKTPGHPEYGHTAGVDATTGPLGQGIATAVGMAMAERHLAAKYNRDAYNIVDHYTYAICGDGDLMEGVSAEASSLAAHLQLGRLVVLYDSNDISLDGDLNRSFSESVEDRYKAYGWQVIRVEDGNDIEAIAKAIEEAKADEKRPTLIEVRTTIGFGSPNKSGKSASHGSPLGVEETKLTKEAYAWTAEQDFHVAEEVYENFRKTVQDVGETAQAEWNTMLGEYAQAYPELANELQAAMNGLLPEGWEQNLPTYELGSKAATRNSSGAVINAIAESVPSFFGGSADLAGSNKTYMNNEKDFTRDDYSGKNIWYGVREFAMGAAMNGIALHGGLKTYGGTFFVFSDYLRPAIRLAALMQLPVTYVFTHDSIAVGEDGPTHEPIEQLAALRAMPNVSVIRPADGNESVAAWRLALESTNKPTALVLTRQDLPTLEGAKDDTYEKVAKGAYVVSASKKETADVILLATGSEVSLAVEAQKALAVDGVDASVVSMPSMDRFEAQTAEYKESVLPKAVTKRFAIEMGATFGWHRYVGLEGDVLGIDTFGASAPGEKIMEEYGFTVENVVRKVKEML”, the “soluble on expression in E. coli” value was “soluble”.
